From patent US20190315873A1 (AGOMAB THERAPEUTICS, published 2019) come the findings set out here.

As a reminder, the EC50 is the midpoint of the concentration-response curve. Usually EC50 (read off the curve) stands for the concentration at which the effect is half-maximal.

Assay [1] concerns the target T1, human MET ECD (human, UniProt P08581 25-932).
T1 construct: range 1-932; recombinant ECD made by standard protein engineering; also called hMET; human MET extracellular domain
The assay is described as follows: ELISA, mouse-format mAb on MET ECD. How it is done: (§1) In order to directly determine whether—and to what extent—the prior art agonistic anti-MET antibodies cross-reacted with mouse MET, and to compare them to our human/mouse equivalent anti-MET antibodies, we performed an ELISA assay. Since all prior art antibodies were obtained or engineered with a mouse IgG/A format, we employed the mouse IgG/A version of 71G3, 71D6 and 71G2. Human or mouse MET ECD was immobilized in solid phase (100 ng/well in a 96-well plate) and exposed to increasing concentrations of antibodies (0-40 nM) in solution. […] Among the antibodies tested, only 71G3, 71D6 and 71G2 bound to both human and mouse MET, and they did so with indistinguishable affinities and capacities.
In general terms: ELISA stands for enzyme-linked immunosorbent assay.

Assay [2] deals with T2, mouse MET ECD (mouse, UniProt P16056 25-931).
T2 construct: range 1-931; recombinant ECD; also called mMET; mouse MET extracellular domain
The assay is described as follows: ELISA, mouse-format mAb on MET ECD. How it is done: as §1

Assay [3] addresses human MET on A549 human lung carcinoma cells (human) (UniProt P08581). The assay is described as follows: cell-based or functional assay.
In assay [4] the target is mouse MET on MLP29 mouse liver precursor cells (mouse) (UniProt P16056). Nature of the assay: cell-based or functional assay.
Assay [5] concerns the target human MET ECD mutant H (mutations 2, 4) (human) (UniProt P08581). Nature of the assay: ELISA on mutant human MET ECD.
The target of assay [6] is human MET ECD mutant A (mutations 1, 2, 3) (human) (UniProt P08581). The assay is described as follows: ELISA on mutant human MET ECD.
Assay [7] concerns the target human MET ECD mutant D (mutations 1, 2) (human) (UniProt P08581). The assay is described as follows: ELISA on mutant human MET ECD.
Assay [8] concerns the target human MET ECD mutant E (mutations 2, 3, 4) (human) (UniProt P08581). Nature of the assay: ELISA on mutant human MET ECD.
The next assay deals with rat MET ECD (rat) (UniProt P97523). Nature of the assay: ELISA: MET ECD immobilized (100 ng/well), mAb in human IgG1/lambda format in solution (0-40 nM), HRP anti-human Fc.
rat MET ECD (rat), sequence (P97523 25-931 limits assumed, form in doubt): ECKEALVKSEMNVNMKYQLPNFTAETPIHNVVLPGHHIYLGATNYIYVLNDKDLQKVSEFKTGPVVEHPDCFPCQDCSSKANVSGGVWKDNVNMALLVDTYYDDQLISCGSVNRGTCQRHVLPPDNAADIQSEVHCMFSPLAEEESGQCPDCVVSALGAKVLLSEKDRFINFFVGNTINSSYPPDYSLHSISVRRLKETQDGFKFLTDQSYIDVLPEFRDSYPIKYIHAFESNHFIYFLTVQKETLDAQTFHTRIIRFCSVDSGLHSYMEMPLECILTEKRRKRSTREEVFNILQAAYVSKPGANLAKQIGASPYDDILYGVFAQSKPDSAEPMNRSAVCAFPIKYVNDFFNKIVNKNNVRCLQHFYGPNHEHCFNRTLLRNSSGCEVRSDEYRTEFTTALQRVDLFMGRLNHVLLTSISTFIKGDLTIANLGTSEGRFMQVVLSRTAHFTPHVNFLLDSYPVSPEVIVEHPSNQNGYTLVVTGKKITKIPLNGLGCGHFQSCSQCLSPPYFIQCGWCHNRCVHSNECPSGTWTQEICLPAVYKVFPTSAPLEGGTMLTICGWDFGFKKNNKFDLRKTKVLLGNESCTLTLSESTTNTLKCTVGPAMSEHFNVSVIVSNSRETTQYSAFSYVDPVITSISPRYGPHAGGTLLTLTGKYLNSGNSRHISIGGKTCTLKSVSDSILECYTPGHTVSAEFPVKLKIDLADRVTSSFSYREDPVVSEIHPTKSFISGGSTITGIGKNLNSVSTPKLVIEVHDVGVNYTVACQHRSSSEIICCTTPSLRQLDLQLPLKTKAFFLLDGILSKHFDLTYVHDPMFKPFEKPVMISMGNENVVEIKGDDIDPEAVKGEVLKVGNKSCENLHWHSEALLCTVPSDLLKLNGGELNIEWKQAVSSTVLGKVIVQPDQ
Assay [9] deals with T1, human MET ECD. Described as above. An excerpt: (§2) To this end, we investigated whether our human/mouse equivalent anti-MET antibodies cross-reacted with MET from other species, including rat (Rattus norvegicus) and cynomolgus monkey (Macaca fascicularis). […] Human and mouse MET ECD were used as controls. A restricted panel of antibodies representative of both SEMA binders (71D6, 71C3, 71D4, 71A3, 71G2) and PSI binders (76H10, 71G3) was selected. The 5D5 prior art antibody was used as control. MET ECD proteins were immobilized in solid phase (100 ng/well in a 96-well plate) and exposed to increasing concentrations (0-40 nM) of antibodies (with human constant regions) in solution. […] We conclude that the 71D6, 71C3, 71D4, 71A3, 71G2, 76H10 and 71G3 antibodies bind with similar affinity and capacity to human MET, mouse MET, rat MET and simian MET, at least as determined by ELISA.

Assay [10] deals with T2, mouse MET ECD. The assay is described as above.
Source text: as §2

The next assay concerns the target T3, monkey MET ECD (cynomolgus monkey, UniProt A0A2K5UM36 25-932).
T3 construct: also called simian MET; cynomolgus monkey MET
The description is as above.
Source text: as §2

T3 sequence (A0A2K5UM36 entry or part of it limits assumed): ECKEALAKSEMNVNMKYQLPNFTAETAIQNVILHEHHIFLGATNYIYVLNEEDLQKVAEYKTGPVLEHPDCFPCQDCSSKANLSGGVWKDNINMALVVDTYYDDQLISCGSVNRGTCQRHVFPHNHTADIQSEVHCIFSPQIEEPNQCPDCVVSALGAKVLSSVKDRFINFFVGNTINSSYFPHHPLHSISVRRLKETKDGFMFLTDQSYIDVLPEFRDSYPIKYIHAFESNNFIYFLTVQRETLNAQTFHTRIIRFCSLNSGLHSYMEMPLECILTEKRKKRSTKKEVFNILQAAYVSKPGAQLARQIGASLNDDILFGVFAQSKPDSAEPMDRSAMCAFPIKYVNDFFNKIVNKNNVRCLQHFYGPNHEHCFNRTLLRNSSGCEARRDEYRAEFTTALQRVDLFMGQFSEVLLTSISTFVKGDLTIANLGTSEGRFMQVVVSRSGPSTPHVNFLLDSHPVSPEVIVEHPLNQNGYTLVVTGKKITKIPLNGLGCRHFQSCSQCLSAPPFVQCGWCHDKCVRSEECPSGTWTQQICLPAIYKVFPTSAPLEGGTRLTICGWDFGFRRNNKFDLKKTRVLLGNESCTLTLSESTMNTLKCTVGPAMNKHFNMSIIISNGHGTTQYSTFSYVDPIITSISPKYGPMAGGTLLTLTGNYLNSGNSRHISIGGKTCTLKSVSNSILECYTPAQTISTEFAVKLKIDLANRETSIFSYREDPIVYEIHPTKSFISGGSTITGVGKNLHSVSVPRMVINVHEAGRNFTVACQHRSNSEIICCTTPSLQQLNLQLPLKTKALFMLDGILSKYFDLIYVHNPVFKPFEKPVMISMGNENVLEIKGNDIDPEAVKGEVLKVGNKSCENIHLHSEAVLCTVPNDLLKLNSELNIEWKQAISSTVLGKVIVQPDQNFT

For “5D5 anti-human MET antibody, mouse IgG1/lambda format”, in the assay with human MET ECD [1], the 50% effective concentration (EC50) amounted to 197 pM and the EMAX was 3.16 OD450. In the assay with mouse MET ECD [2], this molecule yielded an EC50 greater than 40000 pM.

In assay [3], “recombinant human HGF (from UniProt P14210 32-728) (ligand)” returned a phospho-MET ELISA EC50 of 190 pM and a phospho-MET ELISA EMAX (% HGF activity) of 100.

Regarding “recombinant mouse HGF (from UniProt Q08048 33-728) (ligand)”, in assay [4], the phospho-MET ELISA EC50 is 230 pM and the phospho-MET ELISA EMAX (% HGF activity) is 100.

B1: 71G2 llama-human chimeric mAb (human IgG1/lambda) (antibody)
heavy: EVQLQESGGGLVQPGGSLRLSCAASGFTFSIYDMSWVRQAPGKGLEWVSTINSDGSSTSYVDSVKGRFTISRDNAKNTLYLQMNSLKPEDTAVYYCAKVYGSTWDVGPMGYGMDYWGKGTLVTVSSASTKGPSVFPLAPSSKSTSGGTAALGCLVKDYFPEPVTVSWNSGALTSGVHTFPAVLQSSGLYSLSSVVTVPSSSLGTQTYICNVNHKPSNTKVDKKVEPKSCDKTHTCPPCPAPELLGGPSVFLFPPKPKDTLMISRTPEVTCVVVDVSHEDPEVKFNWYVDGVEVHNAKTKPREEQYNSTYRVVSVLTVLHQDWLNGKEYKCKVSNKALPAPIEKTISKAKGQPREPQVYTLPPSRDELTKNQVSLTCLVKGFYPSDIAVEWESNGQPENNYKTTPPVLDSDGSFFLYSKLTVDKSRWQQGNVFSCSVMHEALHNHYTSEVFVPQSRKVI
light: SSALTQPSALSVSLGQTARITCQGGSLGSSYAHWYQQKPGQAPVLVIYGDDSRPSGIPERFSGSSSGGTATLTISGAQAEDEDDYYCQSTDSSGNTVFGGGTRLTVLQPKAAPSVTLFPPSSEELQANKATLVCLISDFYPGAVTVAWKADSSPVKAGVETTTPSKQSNNKYAASSYLSLTPEQWKSHRSYSCQVTHEGSTVEKTVAPTECS
With B1, the % binding (EMAX) vs WT MET ECD is 40.2% in assay [5], 92.1% in [6], 114% in [7] and 41.4% in assay [8]. The EC50 (read off the curve) with rat MET ECD (rat) was 100 pM; with human MET ECD [9], roughly 100 pM; in the assay with mouse MET ECD [10] it was roughly 60 pM; with monkey MET ECD, roughly 70 pM.

B2: DN-30 mouse anti-human MET antibody (antibody, from another filing, V domains shown)
VH: QVQLQQPGTELVKPGASVKLSCKASGYTFTSYWIHWVKQRPGQGLEWIGEINPSSGRTNYNEKFKNKVTVTVDKSSTTAYMQLSNLTSEDSAVYYCASRGYWGQGTTLTVSS
VL: DIVLTQSPASLAVSLGQRATISCKASQSVDYDGGSYMSWFQQRPGQPPKLLISAASNLESGIPARFSGSGSGTDFTLNIHPVEEEDVATYYCQQSYEDPLTFGAGTKLELKR
In the case of B2, the concentration for a half-maximal effect (EC50) was 67 pM in the assay with human MET ECD [1] and greater than 40000 pM with mouse MET ECD [2]. This molecule displayed an EMAX with human MET ECD [1] of 3.06 OD450.

B3: 71D6 llama-human chimeric mAb (human IgG1/lambda) (antibody)
heavy: ELQLVESGGGLVQPGGSLRLSCAASGFTFSSYGMSWVRQAPGKGLEWVSAINSYGGSTSYADSVKGRFTISRDNAKNTLYLQMNSLKPEDTAVYYCAKEVRADLSRYNDYESYDYWGQGTQVTVSSASTKGPSVFPLAPSSKSTSGGTAALGCLVKDYFPEPVTVSWNSGALTSGVHTFPAVLQSSGLYSLSSVVTVPSSSLGTQTYICNVNHKPSNTKVDKKVEPKSCDKTHTCPPCPAPELLGGPSVFLFPPKPKDTLMISRTPEVTCVVVDVSHEDPEVKFNWYVDGVEVHNAKTKPREEQYNSTYRVVSVLTVLHQDWLNGKEYKCKVSNKALPAPIEKTISKAKGQPREPQVYTLPPSRDELTKNQVSLTCLVKGFYPSDIAVEWESNGQPENNYKTTPPVLDSDGSFFLYSKLTVDKSRWQQGNVFSCSVMHEALHNHYTSEVFVPQSRKVI
light: QPVLNQPSALSVTLGQTAKITCQGGSLGARYAHWYQQKPGQAPVLVIYDDDSRPSGIPERFSGSSSGGTATLTISGAQAEDEGDYYCQSADSSGSVFGGGTHLTVLQPKAAPSVTLFPPSSEELQANKATLVCLISDFYPGAVTVAWKADSSPVKAGVETTTPSKQSNNKYAASSYLSLTPEQWKSHRSYSCQVTHEGSTVEKTVAPTECS
As for B3, the % binding (EMAX) vs WT MET ECD came to 38.6% in [5], 103% in [6], 128% in assay [7] and 43.6% in [8]. Also, the half-maximal effective concentration (EC50 (read off the curve)) with rat MET ECD (rat) was 100 pM; with human MET ECD [9], roughly 100 pM; with mouse MET ECD [10] it was roughly 100 pM; with monkey MET ECD, roughly 100 pM.

B4: 71C3 llama-human chimeric mAb (human IgG1/lambda) (antibody, V domains shown)
VH: QLQLVESGGGLVQPGGSLRLSCAASGFTFSSHAMSWVRQAPGKGLEWVSAINSGGGSTSYADSVKGRFTISRDNAKNTLYLQMNSLKPEDTAVYYCAKELRFDLARYTDYEAWDYWGQGTQVTVSS
VL: SYELTQPSALSVTLGQTAKITCQGGSLGSSYAHWYQQKPGQAPVLVIYDDDSRPSGIPERFSGSSSGGTATLTISGAQAEDEGDYYCQSADSSGNAAVFGGGTHLTVLQ
B4: the % binding (EMAX) vs WT MET ECD in assay [5] amounted to 61.6%; in assay [6], 99.8%; in [7], 102%; in assay [8], 59.6%. The EC50 (read off the curve) with rat MET ECD (rat) is 300 pM; in the assay with human MET ECD [9] it was roughly 100 pM; with mouse MET ECD [10] it was roughly 100 pM; with monkey MET ECD, roughly 100 pM.

B5: 71A3 llama-human chimeric mAb (human IgG1/lambda) (antibody, V domains shown)
VH: EVQLVESGGGLVQPGGSLRLSCAASGFSFKDYDITWVRQAPGKGLEWVSTITSRSGSTSYVDSVKGRFTISGDNAKNTLYLQMNSLKPEDTAVYYCAKVYATTWDVGPLGYGMDYWGKGTLVTVSS
VL: SYELTQPSALSVTLGQTAKITCQGGSLGSSYAHWYQQKPGQAPVLVIYDDDSRPSGIPERFSGSSSGGTATLTISGAQAEDEGDYYCQSADSSGNAAVFGGGTHLTVLQ
Regarding B5, the % binding (EMAX) vs WT MET ECD amounted to 76.7% in assay [5], 117% in [6], 128% in assay [7] and 65.4% in assay [8]. Further, the EC50 (read off the curve) with rat MET ECD (rat) was 100 pM; with human MET ECD [9] it was roughly 90 pM; in the assay with mouse MET ECD [10], roughly 70 pM; with monkey MET ECD, roughly 100 pM.

B6: 71D4 llama-human chimeric mAb (human IgG1/lambda) (antibody, V domains shown)
VH: ELQLVESGGGLVQPGGSLRLSCAASGFTFSGYGMSWVRQAPGKGLEWVSDINSGGGSTSYADSVKGRFTISRDNAKNTLYLQMNSLKPEDTAVYYCAKDMRLYLARYNDYEAWDYWGQGTQVTVSS
VL: SSALTQPSALSVTLGQTAKITCQGGSLGSSYAHWYQQKPGQAPVLVIYDDDSRPSGIPERFSGSSSGGTATLTISGAQAEDEGDYYCQSADSSGNAAVFGGGTHLTVLQ
On to B6, for which the % binding (EMAX) vs WT MET ECD in assay [5] was determined as 58.7%; in assay [6], 114%; in assay [7] it was 120%; in assay [8] it was 57.2%. For the same molecule, the EC50 (read off the curve) was 200 pM with rat MET ECD (rat), roughly 200 pM with human MET ECD [9], roughly 200 pM with mouse MET ECD [10] and roughly 100 pM with monkey MET ECD.
